The text below walks through data of US20260258125A1 (NONA BIOSCIENCES SUZHOU, published 2026).

The target of assay [1] is T1, human CEACAM5 on 293T cells (293T-huCEACAM5 cells) (human, UniProt P06731 35-685).
T1 sequence (looked up): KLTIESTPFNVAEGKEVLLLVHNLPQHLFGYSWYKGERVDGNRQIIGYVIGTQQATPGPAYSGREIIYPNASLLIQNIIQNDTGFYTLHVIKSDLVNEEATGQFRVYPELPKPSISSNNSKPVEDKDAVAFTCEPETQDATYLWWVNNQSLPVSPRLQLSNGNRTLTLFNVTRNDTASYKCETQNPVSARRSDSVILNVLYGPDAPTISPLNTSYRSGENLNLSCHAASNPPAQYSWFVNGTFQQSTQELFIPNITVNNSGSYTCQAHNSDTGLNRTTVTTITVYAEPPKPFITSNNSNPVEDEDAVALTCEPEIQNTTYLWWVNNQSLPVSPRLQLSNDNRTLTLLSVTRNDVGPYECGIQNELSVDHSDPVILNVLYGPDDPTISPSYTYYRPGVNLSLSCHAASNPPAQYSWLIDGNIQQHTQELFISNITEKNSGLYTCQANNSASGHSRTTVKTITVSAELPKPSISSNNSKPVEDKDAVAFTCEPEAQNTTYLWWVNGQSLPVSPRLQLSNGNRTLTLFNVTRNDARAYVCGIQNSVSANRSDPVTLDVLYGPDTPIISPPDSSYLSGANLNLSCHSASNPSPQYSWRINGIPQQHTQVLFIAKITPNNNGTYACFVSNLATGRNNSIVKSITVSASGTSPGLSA
In words: cell-based or functional assay.

Assay [2] addresses T2, human CEACAM6 on 293T cells (293T-huCEACAM6 cells) (human, UniProt P40199 35-320).
T2 sequence (looked up): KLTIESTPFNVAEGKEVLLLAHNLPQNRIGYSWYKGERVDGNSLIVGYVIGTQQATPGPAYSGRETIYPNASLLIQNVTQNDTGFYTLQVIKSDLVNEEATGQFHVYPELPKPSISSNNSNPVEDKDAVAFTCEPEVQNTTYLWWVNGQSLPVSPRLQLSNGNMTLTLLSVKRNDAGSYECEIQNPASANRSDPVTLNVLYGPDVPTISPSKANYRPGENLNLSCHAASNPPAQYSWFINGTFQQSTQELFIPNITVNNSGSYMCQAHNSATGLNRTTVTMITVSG
In words: cell-based or functional assay.

For assay [3], the target named is T3, human CEACAM1 protein (human, UniProt P13688 35-428).
T3 construct: also called huCEACAM1
T3 sequence (looked up): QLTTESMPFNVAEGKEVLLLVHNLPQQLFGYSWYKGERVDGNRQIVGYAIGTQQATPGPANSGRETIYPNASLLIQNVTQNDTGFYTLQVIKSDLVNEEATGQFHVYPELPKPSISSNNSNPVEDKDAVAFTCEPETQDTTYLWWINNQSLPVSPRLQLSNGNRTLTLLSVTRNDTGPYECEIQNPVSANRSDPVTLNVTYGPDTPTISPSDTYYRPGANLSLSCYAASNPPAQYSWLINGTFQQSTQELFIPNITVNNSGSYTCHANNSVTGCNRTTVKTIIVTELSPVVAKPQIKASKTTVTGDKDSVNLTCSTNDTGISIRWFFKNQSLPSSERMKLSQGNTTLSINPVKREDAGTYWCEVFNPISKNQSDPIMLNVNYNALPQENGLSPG
In words: ELISA, antigen coated on plate. From the text:
(§1) Binding of recombinant anti-CEACAM5/6 dual-binding monoclonal antibodies against human and cynomolgus CEACAM5, and human CEACAM6 (Uniprot P40199), human CEACAM 1, 3 (NP_001806.2, Sino Biological 11933-H08H) and 8 (NP_001807.2, Acro Bio CE8-H5224) were detected by ELISA. Anti-CEACAM5/6 dual-antibodies were serially diluted in staining buffer (PBS containing 2% FBS). […] ELISA was used to test the binding between antibody containing supernatant or purified antibodies and the antigen. Briefly, the antigens were coated on a 96-well high binding plate overnight at 4° C. The plate was washed with PBST three times, incubated with blocking buffer (2% Bovine Serum Albumin) for one hour at 37° C., washed with PBST three times and incubated with antibody containing supernatant or purified antibodies at desired dilutions or concentrations for one hour at 37° C. A secondary antibody, anti-human Fc-HRP (Jackson Laboratory, 109-035-097) was used for detection of the targeted antibody. TMB and stopping solution were used for detection of HRP signal. The HRP signal was read on a SPECTRAMAX plate reader.
For orientation: In an ELISA, binding on a coated surface is turned into a signal by an enzyme label.

In assay [4] the target is T4, recombinant human CEACAM5 Fc-tag protein (human, UniProt P06731 35-685, limits assumed).
T4 construct: also called huCEACAM5 (Octet); huCEACAM5-Fc; not shown: Fc tag
T4 sequence (looked up): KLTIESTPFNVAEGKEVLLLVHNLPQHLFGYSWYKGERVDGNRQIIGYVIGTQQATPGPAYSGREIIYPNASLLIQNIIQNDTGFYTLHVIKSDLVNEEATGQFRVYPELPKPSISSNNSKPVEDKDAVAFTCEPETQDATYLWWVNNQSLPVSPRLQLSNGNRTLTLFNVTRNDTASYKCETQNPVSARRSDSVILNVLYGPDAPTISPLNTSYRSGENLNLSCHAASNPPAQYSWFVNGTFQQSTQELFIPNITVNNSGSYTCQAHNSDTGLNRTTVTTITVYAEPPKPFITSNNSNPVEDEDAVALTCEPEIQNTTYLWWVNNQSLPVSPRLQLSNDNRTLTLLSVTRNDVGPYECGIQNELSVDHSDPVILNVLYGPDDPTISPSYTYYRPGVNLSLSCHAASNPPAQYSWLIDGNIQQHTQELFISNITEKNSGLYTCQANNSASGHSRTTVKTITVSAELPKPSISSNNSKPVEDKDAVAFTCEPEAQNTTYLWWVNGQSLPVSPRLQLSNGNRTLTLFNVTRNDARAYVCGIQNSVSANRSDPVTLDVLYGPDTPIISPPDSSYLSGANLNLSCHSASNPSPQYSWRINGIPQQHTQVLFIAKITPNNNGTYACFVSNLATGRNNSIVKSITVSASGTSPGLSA
In words: Octet (BLI), antibody on AHC sensor, antigen in solution. As for the experimental part:
(§2) Binding kinetics of recombinant anti-CEACAM5/6 antibodies to CEACAM5 and CEACAM6 were analyzed by Octet. In Octet analysis, recombinant human CEACAM5 Fc-tag protein (#Uniprot P06731) or CEACAM6 Fc-tag protein (Uniprot P40199) was serially diluted with 1×kinetic buffer (Fortebio). Anti-CEACAM5/6 dual-binding antibodies were diluted to 5 μg/mL. Then diluted antibodies, antigen and regeneration buffer (10 mM glycine pH 1.75) were added to 96-well plates (Greiner). Rate constants for association and dissociation were measured using AHC sensor (Fortebio). The sensor surface was regenerated after each binding experiment with regeneration buffer. The traces were processed using ForteBio Data Analysis Software (version 8.0, Pall ForteBio, CA, USA).
Background: Biolayer interferometry detects binding as a change in optical thickness at a sensor tip.

Assay [5] deals with T5, recombinant human CEACAM6 Fc-tag protein (human, UniProt P40199 35-320, limits assumed).
T5 construct: also called huCEACAM6 (Octet); not shown: Fc tag
T5 sequence (looked up): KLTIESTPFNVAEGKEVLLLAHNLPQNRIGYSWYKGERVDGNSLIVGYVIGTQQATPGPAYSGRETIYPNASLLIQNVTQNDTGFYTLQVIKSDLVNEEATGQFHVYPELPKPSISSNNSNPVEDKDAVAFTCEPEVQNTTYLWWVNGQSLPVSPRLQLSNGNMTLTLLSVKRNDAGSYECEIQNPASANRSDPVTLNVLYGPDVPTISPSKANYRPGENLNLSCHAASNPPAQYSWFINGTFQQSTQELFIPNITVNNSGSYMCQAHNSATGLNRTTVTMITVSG
Described as above. As for the experimental part:
as §2

The target in assay [6] is T1, human CEACAM5 on 293T cells …. In words: flow cytometry on 293T-huCEACAM5 cells with against without 100 nM soluble CEACAM5. On the technique in general: A flow cytometer gives signals particle by particle.
For assay [7], the target named is T2, human CEACAM6 on 293T cells …. In words: flow cytometry on 293T-huCEACAM6 cells with against without 100 nM soluble CEACAM6.
For assay [8], the target named is T6, human CEACAM3 protein (human, UniProt P40198 35-155).
T6 construct: Bought protein; also called huCEACAM3
T6 sequence (looked up): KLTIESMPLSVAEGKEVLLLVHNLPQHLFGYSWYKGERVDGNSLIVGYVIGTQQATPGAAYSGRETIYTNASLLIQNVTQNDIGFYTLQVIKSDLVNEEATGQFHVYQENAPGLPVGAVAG
In words: ELISA, human CEACAM3 protein coated on the plate, anti-human Fc-HRP, OD450.
Text: as §1

B1: PR304294 (antibody, human IgG1, kappa, V domains shown)
VH: EVQLLESGGGLVQPGGSLRLSCAASGFTFSSYAMSWVRQAPGKGLEWVSAISGTTYNTYYAGSVKGRFTISRDNSKNTLYLQMNSLRAEDTAVYYCAKGISVAGYYYYGMDVWGQGTTVTVSS
VL: EIVMTQSPATLSVSPGERATLSCRASQSVISNLAWYQQKPGQAPRLLIYGASTRATGIPARFSGSGSGTEFTLTISSLQSEDFAVYYCHQYNNWPLTFGGGTKVEIKR
notes: Recombinant full antibody
A word on the Kd: it is the equilibrium constant for the complex coming apart. Turning to B1, the “Internalization of pHAb-dye-labelled antibody, MFI (37° C.-4° C.)/DAR” value in assay [1] is 11300; in assay [2], 14700. Further, the binding result in assay [3] is “no binding”; in assay [8], “no binding (tested: 100 nM)”. Further, the Kd in assay [4] was 5.48 nM; in assay [5], 19.9 nM. Besides, the “fold change of EC50 at the presence of 100 nM soluble protein” value in assay [6] turned out to be 4.1 fold; in assay [7], 2.1 fold.

B2: PR304171 (antibody, human IgG1, kappa, V domains shown)
VH: not shown
VL: EIVMTQSPATLSVSPGERATLSCRASQNVISNLAWHQQKPGQAPRLLIYTTSTRATGIPARFSGSGSGTEFTLTISSLQSEDFAVYYCQQYNNWPLTFGGGTKVEIKR
notes: Recombinant full antibody
As for B2, the binding result in assay [3] was “no binding”.
